Reference: patent US20170190753A1 (LABORATOIRE FRANCAIS DU FRACTIONNEMENT ET DES …, published 2017)
Blank lines part the entries; values can stand above or below the binder they belong to.

Molecular target: C3 convertase complex (UniProt P01024 23-1663; P00751 260-764)
Test: cell-based or functional assay
Throughout, for C3 convertase activity % of the control: test concentration or dose not given here.

Chain of C3 convertase complex (P01024 23-1663, chain 1 of 2): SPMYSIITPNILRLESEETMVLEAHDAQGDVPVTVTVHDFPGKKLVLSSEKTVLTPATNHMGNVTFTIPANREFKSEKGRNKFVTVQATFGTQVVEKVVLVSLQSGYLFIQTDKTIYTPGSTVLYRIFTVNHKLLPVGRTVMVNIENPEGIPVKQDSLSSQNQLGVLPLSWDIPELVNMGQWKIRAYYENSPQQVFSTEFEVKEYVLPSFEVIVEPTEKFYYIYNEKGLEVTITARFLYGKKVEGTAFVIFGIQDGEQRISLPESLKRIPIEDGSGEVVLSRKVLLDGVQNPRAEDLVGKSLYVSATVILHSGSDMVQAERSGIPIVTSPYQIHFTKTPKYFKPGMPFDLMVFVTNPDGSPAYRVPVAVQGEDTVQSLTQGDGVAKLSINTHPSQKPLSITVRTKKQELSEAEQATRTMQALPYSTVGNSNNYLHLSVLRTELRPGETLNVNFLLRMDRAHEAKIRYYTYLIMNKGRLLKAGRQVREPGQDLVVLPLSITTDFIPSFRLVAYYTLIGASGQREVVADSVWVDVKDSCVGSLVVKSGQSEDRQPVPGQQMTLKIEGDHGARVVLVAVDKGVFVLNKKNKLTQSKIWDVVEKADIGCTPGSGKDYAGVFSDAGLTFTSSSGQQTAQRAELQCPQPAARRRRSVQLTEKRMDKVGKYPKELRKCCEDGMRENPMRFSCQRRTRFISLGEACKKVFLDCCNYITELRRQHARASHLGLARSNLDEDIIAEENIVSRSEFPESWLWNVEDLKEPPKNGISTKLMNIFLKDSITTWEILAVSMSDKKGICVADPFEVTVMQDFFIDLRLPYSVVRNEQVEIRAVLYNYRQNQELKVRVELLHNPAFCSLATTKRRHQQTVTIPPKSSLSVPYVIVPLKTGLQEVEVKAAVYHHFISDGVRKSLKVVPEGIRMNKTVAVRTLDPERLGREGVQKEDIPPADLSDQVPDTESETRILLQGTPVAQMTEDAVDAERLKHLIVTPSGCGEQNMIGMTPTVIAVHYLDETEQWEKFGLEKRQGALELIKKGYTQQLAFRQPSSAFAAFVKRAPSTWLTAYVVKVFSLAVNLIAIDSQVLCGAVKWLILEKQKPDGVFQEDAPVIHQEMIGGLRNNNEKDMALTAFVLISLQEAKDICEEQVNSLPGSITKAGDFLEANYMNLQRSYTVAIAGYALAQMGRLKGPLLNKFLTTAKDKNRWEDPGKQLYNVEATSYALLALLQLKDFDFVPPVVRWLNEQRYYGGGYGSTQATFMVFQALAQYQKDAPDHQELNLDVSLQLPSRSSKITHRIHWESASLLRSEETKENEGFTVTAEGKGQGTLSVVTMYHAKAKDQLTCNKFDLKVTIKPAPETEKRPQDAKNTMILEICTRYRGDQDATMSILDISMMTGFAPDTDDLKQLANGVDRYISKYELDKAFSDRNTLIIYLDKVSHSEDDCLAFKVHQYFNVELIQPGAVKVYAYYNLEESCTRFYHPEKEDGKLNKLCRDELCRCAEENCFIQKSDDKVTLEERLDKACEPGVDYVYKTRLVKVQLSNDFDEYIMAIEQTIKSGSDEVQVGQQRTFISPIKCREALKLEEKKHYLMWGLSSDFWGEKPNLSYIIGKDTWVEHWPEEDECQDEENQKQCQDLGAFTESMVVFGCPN
Chain of C3 convertase complex (P00751 260-764, chain 2 of 2): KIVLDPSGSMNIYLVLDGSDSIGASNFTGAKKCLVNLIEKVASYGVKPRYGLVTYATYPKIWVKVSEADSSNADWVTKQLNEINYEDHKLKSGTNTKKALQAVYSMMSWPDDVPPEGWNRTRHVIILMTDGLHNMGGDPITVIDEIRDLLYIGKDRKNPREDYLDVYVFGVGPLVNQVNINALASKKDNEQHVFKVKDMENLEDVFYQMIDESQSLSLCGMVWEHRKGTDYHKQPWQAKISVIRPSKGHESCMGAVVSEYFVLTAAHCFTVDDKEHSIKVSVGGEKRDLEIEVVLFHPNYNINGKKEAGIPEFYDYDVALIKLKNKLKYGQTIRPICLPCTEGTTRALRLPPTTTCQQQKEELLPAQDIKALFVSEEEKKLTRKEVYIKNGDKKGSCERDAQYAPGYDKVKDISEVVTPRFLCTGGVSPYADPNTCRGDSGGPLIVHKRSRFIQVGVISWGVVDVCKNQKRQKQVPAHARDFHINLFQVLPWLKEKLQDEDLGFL

C3 convertase activity % of the control: 30 % of the control
C3 convertase activity IC50: 0.402 µg/mL
B1: pCEP4-1NT8-13CT20 (other)
chain: EDCNELPPRRNTEILTGSWSDQTYPEGTQAIYKCRPGYRSLGNVIMVCRKGEWVALNPLRKCQKRPCGHPGDTPFGTFTLTGGNVFEYGVKAVYTCNEGYQLLGEINYRECDTDGWTNDIPICEVVKCLPVTAPENGKIVSSAMEPDREYHFGQAVRFVCNSGYKIEGDEEMHCSDDGFWSKEKPKCVEISCKSPDVINGSPISQKIIYKENERFQYKCNMGYEYSERGDAVCTESGWRPLPSCEEKSCDNPYIPNGDYSPLRIKHRTGDEITYQCRNGFYPATRGNTAKCTSTGWIPAPRCTLKPCDYPDIKHGGLYHENMRRPYFPVAVGKYYSYYCDEHFETPSGSYWDHIHCTQDGWSPAVPCLRKCYFPYLENGYNQNHGRKFVQGKSIDVACHPGYALPKAQTTVTCMENGWSPTPRCIRVKTCSKSSIDIENGFISESQYTYALKEKAKYQCKLGYVTADGETSGSITCGKDGWSAQPTCIKSGASGCKSSNLIILEEHLKNKKEFDHNSNIRYRCRGKEGWIHTVCINGRWDPEVNCSMAQIQLCPPPPQIPNSHNMTTTLNYRDGEKVSVLCQENYLIQEGEEITCKDGRWQSIPLCVEKIPCSQPPQIEHGTINSSRSSQESYAHGTKLSYTCEGGFRISEENETTCYMGKWSSPPQCEGLPCKSPPEISHGVVAHMSDSYQYGEEVTYKCFEGFGIDGPAIAKCLGEKWSHPPSCIKTDCLSLPSFENAIPMGEKKDVYKAGEQVTYTCATYYKMDGASNVTCINSRWTGRPTCRDTSCVNPPTVQNAYIVSRQMSKYPSGERVRYQCRSPYEMFGDEEVMCLNGNWTEPPQCKDSTGKCGPPPPIDNGDITSFPLSVYAPASSVEYQCQNLYQLEGNKRITCRNGQWSEPPKCLHPCVISREIMENYNIALRWTAKQKLYSRTGESVEFVCKRGYRLSSRSHTLRTTCWDGKLEYPTCAKRGGSGHHHHHH

C3 convertase activity % of the control: 30 % of the control
C3 convertase activity IC50: 0.307 µg/mL
B2: pCEP4-1NT9-12CT20 (other)
chain: EDCNELPPRRNTEILTGSWSDQTYPEGTQAIYKCRPGYRSLGNVIMVCRKGEWVALNPLRKCQKRPCGHPGDTPFGTFTLTGGNVFEYGVKAVYTCNEGYQLLGEINYRECDTDGWTNDIPICEVVKCLPVTAPENGKIVSSAMEPDREYHFGQAVRFVCNSGYKIEGDEEMHCSDDGFWSKEKPKCVEISCKSPDVINGSPISQKIIYKENERFQYKCNMGYEYSERGDAVCTESGWRPLPSCEEKSCDNPYIPNGDYSPLRIKHRTGDEITYQCRNGFYPATRGNTAKCTSTGWIPAPRCTLKPCDYPDIKHGGLYHENMRRPYFPVAVGKYYSYYCDEHFETPSGSYWDHIHCTQDGWSPAVPCLRKCYFPYLENGYNQNHGRKFVQGKSIDVACHPGYALPKAQTTVTCMENGWSPTPRCIRVKTCSKSSIDIENGFISESQYTYALKEKAKYQCKLGYVTADGETSGSITCGKDGWSAQPTCIKSCDIPVFMNARTKNDFTWFKLNDTLDYECHDGYESNTGSTTGSIVCGYNGWSDLPICYEREGASGCGDIPELEHGWAQLSSPPYYYGDSVEFNCSESFTMIGHRSITCIHGVWTQLPQCVAIDKLKKCKSSNLIILEEHLKNKKEFDHNSNIRYRCRGKEGWIHTVCINGRWDPEVNCSMAQIQLCPPPPQIPNSHNMTTTLNYRDGEKVSVLCQENYLIQEGEEITCKDGRWQSIPLCVEKIPCSQPPQIEHGTINSSRSSQESYAHGTKLSYTCEGGFRISEENETTCYMGKWSSPPQCEGLPCKSPPEISHGVVAHMSDSYQYGEEVTYKCFEGFGIDGPAIAKCLGEKWSHPPSCIKTDCLSLPSFENAIPMGEKKDVYKAGEQVTYTCATYYKMDGASNVTCINSRWTGRPTCRDTSCVNPPTVQNAYIVSRQMSKYPSGERVRYQCRSPYEMFGDEEVMCLNGNWTEPPQCKDSTGKCGPPPPIDNGDITSFPLSVYAPASSVEYQCQNLYQLEGNKRITCRNGQWSEPPKCLHPCVISREIMENYNIALRWTAKQKLYSRTGESVEFVCKRGYRLSSRSHTLRTTCWDGKLEYPTCAKRGGSGHHHHHH
